{"source": "patent US20230025129A1", "about": "(KYMAB, published 2023)", "binders": {"B1": {"name": "NORI-008 (antibody, human IgG4 S228P, kappa, V domains shown)", "VH": "QVQLQESGPGLVKPSETLSLTCSVSGGSVSSGRYYWTWIRQPPGKGLEWIGYISNSGNTNYNPSLKSRVTISLDTSKKQFSLSLSAVTAADTAVYYCARGFIYDYWFDPWGQGSLVTVSS", "VL": "DSQMTQSPSSLSASVGDRVTITCQASQDIDNYLNWYQQRPGKAPKLLIYDASKLETGVPSRFSGSGSGTDFTFTISSLQPEDFATYYCQQYGNLPITFGQGTRLDIKR", "notes": "human IgG4PE, kappa, in the in vitro assays; a mouse IgG1 format was used in one in vivo study only; also called NORI-008 hulgG4PE; NORI-008 IgG"}}, "key": {"[1]": {"target": "T1, human matriptase-2 ECD protein his tag (human, UniProt Q8IU80 78-811)", "T1 construct": "also called human MTP-2 ECD; huMTP-2", "T1 sequence": "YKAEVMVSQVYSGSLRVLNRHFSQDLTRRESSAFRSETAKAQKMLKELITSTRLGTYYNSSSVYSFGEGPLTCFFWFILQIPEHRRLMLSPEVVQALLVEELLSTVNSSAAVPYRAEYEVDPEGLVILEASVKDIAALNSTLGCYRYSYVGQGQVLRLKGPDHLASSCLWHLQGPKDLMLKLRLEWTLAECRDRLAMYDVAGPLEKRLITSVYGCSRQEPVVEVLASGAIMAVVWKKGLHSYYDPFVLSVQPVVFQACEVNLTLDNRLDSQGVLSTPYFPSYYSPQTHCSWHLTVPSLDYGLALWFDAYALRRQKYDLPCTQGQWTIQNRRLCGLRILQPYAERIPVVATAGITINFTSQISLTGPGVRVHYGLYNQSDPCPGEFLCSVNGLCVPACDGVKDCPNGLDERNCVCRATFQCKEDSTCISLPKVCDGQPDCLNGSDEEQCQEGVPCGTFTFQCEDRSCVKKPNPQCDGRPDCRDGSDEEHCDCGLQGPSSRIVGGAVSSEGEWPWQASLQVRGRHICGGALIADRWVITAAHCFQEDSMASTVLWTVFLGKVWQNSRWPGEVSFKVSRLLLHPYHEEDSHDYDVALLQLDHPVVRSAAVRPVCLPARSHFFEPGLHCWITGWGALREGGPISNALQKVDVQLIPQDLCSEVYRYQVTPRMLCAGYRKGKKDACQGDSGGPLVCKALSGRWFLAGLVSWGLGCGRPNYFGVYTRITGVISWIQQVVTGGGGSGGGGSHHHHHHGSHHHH", "experiment": "SPR, his-tagged MTP-2 ECD protein (Table W); true KD could not be measured accurately, very slow off-rate", "protocol": "(§1) Off-rate screening was performed by surface plasmon resonance (SPR), using a Biacore 8K system (GE Healthcare). Anti-human Fc mix (˜1000 RU) were immobilised in both active and reference channels in HBS-P+ buffer (GE BR100671) pH 7.4. Anti-MTP-2 hulgG4PE antibodies were then captured for 60 sec at 10 μl/min at 1 μg/ml concentration (approximatively 35 and 50 RU were captured) only on the active channel. MTP-2 ECD protein analytes were then injected (at 100, 25, 6.25, 1.56 and 0 nM concentrations) for 120 sec (association time) at 30 μl/min and dissociation monitored for 600 sec. Multiple cycle kinetics mode was used with all 8 channels being used. Reference and background were subtracted from the sensorgrams for each antibody and data was fitted using a 1:1 interaction model in the Biacore evaluation software. Rmax, ka, kd globally fitted, RI=0.\n(§2) NORI-011, NORI-008, NORI-003 and NORI-006 were all found to have cross-reactive binding to human, mouse, cyno and rat MTP-2 ECD proteins. […] The true KD value for NORI-008 could not be measured accurately for human or mouse MTP-2 due to a very slow off-rate."}, "[2]": {"target": "T2, mouse matriptase-2 ECD protein his tag (mouse, UniProt Q9DBI0 80-811)", "T2 construct": "aa 80-811 of Q9DBI0 with C-terminal linker and His tag; also called mouse MTP-2 ECD; moMTP-2", "T2 sequence": "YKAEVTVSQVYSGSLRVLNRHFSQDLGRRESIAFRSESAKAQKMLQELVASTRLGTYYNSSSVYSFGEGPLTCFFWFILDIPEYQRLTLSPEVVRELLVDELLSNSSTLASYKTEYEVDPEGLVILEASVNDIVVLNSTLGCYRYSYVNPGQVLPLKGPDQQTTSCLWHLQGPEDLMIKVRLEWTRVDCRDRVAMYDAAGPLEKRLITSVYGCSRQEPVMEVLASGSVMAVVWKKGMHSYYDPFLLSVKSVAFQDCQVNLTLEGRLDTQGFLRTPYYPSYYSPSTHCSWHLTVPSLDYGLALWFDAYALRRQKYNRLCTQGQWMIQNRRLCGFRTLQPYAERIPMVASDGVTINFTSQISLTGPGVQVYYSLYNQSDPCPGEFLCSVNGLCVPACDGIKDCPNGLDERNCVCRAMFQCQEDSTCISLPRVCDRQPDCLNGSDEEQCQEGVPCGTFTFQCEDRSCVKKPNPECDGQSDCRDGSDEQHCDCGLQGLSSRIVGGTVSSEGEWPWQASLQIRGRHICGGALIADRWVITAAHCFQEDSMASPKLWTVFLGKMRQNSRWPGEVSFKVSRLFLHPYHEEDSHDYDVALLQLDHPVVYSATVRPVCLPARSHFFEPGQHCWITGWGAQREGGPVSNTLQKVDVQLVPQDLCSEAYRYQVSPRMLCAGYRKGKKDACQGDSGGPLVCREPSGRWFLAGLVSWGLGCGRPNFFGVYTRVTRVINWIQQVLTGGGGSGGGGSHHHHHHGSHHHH", "experiment": "SPR, his-tagged MTP-2 ECD protein (Table W); true KD could not be measured accurately, very slow off-rate", "protocol": "as §1, §2"}}, "data": [{"binder": "B1", "values": [{"measurement": "Kd", "setting": "[1]", "value": 0.0169, "unit": "pM"}, {"measurement": "Kd", "setting": "[2]", "value": 0.206, "unit": "pM"}]}]}
